# T1: Pantoea dispersa 68J sucrose isomerase (SI), mature, SEQ ID NO: 10, carboxy-terminal 6×His tag (SEQ ID NO: 52) (Pantoea dispersa, UniProt Q6XNK6)
# T1 sequence (Q6XNK6 34-598): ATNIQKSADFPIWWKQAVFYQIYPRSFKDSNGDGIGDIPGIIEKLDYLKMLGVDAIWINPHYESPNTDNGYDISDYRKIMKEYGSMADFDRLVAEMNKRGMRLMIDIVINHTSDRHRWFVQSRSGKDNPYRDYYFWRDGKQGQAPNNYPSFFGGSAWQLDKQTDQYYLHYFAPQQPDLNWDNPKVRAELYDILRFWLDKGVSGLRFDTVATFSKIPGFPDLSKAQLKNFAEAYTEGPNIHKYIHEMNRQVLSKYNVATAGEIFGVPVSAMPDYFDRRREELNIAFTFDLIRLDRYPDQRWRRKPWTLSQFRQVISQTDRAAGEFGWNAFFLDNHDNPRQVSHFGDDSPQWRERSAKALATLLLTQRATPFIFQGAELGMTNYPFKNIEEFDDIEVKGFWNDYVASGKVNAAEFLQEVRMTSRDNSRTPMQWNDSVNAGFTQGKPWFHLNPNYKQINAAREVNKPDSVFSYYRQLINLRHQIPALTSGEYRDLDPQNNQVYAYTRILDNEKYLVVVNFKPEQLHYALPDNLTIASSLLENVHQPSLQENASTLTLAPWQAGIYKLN
# T2: Klebsiella sp. 14S sucrose isomerase (SI), carboxy-terminal 6×His tag (SEQ ID NO: 52) (Klebsiella planticola, UniProt Q6XKX6)
# T2 sequence (Q6XKX6 29-598): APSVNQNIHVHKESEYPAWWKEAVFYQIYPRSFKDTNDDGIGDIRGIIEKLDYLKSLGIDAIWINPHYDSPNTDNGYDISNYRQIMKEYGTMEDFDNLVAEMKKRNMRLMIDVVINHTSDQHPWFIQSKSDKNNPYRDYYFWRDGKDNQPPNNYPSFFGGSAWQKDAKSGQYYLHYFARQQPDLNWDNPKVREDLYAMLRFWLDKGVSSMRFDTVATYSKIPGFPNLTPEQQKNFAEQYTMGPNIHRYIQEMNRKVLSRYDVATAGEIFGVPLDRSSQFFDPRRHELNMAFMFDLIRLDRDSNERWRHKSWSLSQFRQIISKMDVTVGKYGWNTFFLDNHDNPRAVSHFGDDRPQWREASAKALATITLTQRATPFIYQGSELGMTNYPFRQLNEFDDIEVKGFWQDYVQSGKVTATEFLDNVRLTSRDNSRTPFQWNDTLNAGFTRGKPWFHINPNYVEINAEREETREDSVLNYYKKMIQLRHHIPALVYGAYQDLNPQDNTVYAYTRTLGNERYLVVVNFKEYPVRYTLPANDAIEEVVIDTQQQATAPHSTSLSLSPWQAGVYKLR
# Key:
# [1] = tested on: Klebsiella sp. LX3 sucrose isomerase; conditions: isomaltulose product; Zhang et al. 2002; cited from earlier work
# [2] = tested on: Serratia plymuthica ATCC 15928 sucrose isomerase; conditions: isomaltulose product; Véronèse & Perlot 1999; cited from earlier work
# [3] = target: T1, Pantoea dispersa 68J sucrose isomerase (SI), mature, SEQ ID NO: 10, carboxy-terminal 6×His tag (SEQ ID NO: 52); assay: Sucrose isomerase kinetics, purified SI from P. dispersa 68J (isomaltulose production), with or without glucose/fructose; type: biochemical; conditions: sucrose, isomaltulose production
# Experimental: (§1) The pET24b vector introduces a carboxy-terminal 6×His tag (SEQ ID NO: 52) on expressed proteins, which were purified by adsorption to Ni-NTA agarose (Qiagen) and elution with 25 mM NaH2PO4, 150 mM NaCl, 125 mM imidazole buffer (pH8.0) following the manufacturer's instructions. For storage, the eluted solution was diluted with 50% glycerol. The purity of SI proteins was tested by SDS-PAGE as described below. A batch procedure using Ni-NTA agarose in suspension yielded predominantly (80-95%) SI with a background of several other protein bands. A procedure using Ni-NTA agarose in adsorption columns yielded preparations containing a single protein band. Unless otherwise specified, this is the form of the purified SI enzymes used for biochemical characterisation.
# (§2) Enzyme activities were measured by incubating 5 μl of purified enzyme with 95 μL of sucrose solution at a final concentration of 584 mM in 0.1 M citrate/phosphate buffer (pH 6.0) at 30° C. Sugar profiles in the reaction mix were analysed at intervals by CE as described previously. One unit (U) of SI activity was defined as the amount of enzyme that could release 1 μmol of isomaltulose in one minute at the initial stage of the reaction.
# (§3) SI activity was measured by incubating the purified enzyme with different sucrose concentrations (3, 6, 15, 58, 146, 292, 584, 877, 1169 and 1461 mM) under standard assay conditions, and also with addition of glucose, fructose or both to a final concentration of 277 mM. Data were analyzed according to the method of Lineweaver and Burk (Voet and Voet, 1995) to calculate Km and Vmax values.
# [4] = target: T2, Klebsiella sp. 14S sucrose isomerase (SI), carboxy-terminal 6×His tag (SEQ ID NO: 52); assay: Sucrose isomerase kinetics, purified SI from Klebsiella sp. 14S (isomaltulose production), with or without glucose/fructose; type: biochemical; conditions: sucrose, isomaltulose production, pH 6.0, 30° C., Lineweaver and Burk
# Experimental: as §1, with “Unless otherwise specified, this is the form of the purified SI enzymes used for biochemical characterisation.” left out
# Enzyme activities were measured by incubating 5 μl of purified enzyme with 95 μL of sucrose solution at a final concentration of 584 mM in 0.1 M citrate/phosphate buffer (pH 6.0) at 30° C. Sugar profiles in the reaction mix were analysed at intervals by CE as described previously. […]
# as §3
# [5] = tested on: Klebsiella sp. sucrose isomerase; conditions: isomaltulose product; Park et al. 1996; cited from earlier work
# [6] = tested on: Pseudomonas mesoacidophila MX-45 sucrose isomerase; conditions: trehalulose product; Nagai et al. 1994; cited from earlier work
# [7] = Conversion of sucrose into isomaltulose by E. coli cells expressing cloned SI genes; type: cell-based
# Experimental: The three sucrose isomerase genes in the pCR®2.1 vector were cut and cloned into pGEM®-3Zf(+) then into pET 24b vector (Novagen) for expression in E. coli BL21(DE3) strain. Five mL LB medium with 50 μg/mL kanamycin was used for the BL21(DE3) cell culture. Fifteen cultures per construct were set up initially. Cells were grown at 37° C. at 225 rpm shaking. Six to ten cultures per construct, with OD600 1.000±0.005, were selected for further induction. After 0.5 mL was sampled from each culture, IPTG was added to the culture to a final concentration of 1.0 mM. Incubation of the cultures was continued for another 3 hours. The induced cultures only with OD600 1.750±0.005 were further selected for sucrose conversion analysis and protein measurement, allowing analysis of three replicate cultures per construct. From each of the selected IPTG-induced cultures, 1.5 mL was sampled for protein quantification, 0.5 mL for protein SDS-PAGE, 1.0 mL for quantification of conversion efficiency from sucrose into isomaltulose.
# The 1.0 mL culture was centrifuged, then resuspended in citrate/phosphate (pH 6.0) buffered 50% sucrose solution and assayed for isomaltulose conversion by CE analysis as described above. Conversion ratio was calculated by sucrose peak area and isomaltulose peak area normalised against standards of known concentration, using the software of Beckman P/ACE 5000 Series C.E. System.
# Fifteen cultures per construct were set up in 5 mL LB medium (Sambrook and Russell, 2001) with 50 μg/mL kanamycin in a 30 mL universal tube. Cells were grown at 37° C. at 225 rpm shaking. Six to ten cultures per construct, with OD600=1.00 were selected for further induction. After 0.5 mL was sampled from each culture, IPTG was added to a final concentration of 0.5 mM and incubation of the cultures was continued for another 3 h at 28° C. This allowed selection of three replicate cultures per construct with the same OD600 for sucrose conversion analysis and protein measurement. From each of the selected cultures, 1.5 mL was sampled for protein quantification, 0.5 mL for protein SDS-PAGE, and 1.0 mL for quantification of conversion efficiency from sucrose into isomaltulose. For SI protein purification experiment, the culture volume was scaled up to 25 mL in a 250 mL flask.
# The 1.0 mL culture sample was centrifuged at 12,000×g for 1 min, then resuspended in 5 mL of 0.1 M citrate/phosphate (pH 6.0) buffered 50% sucrose solution and incubated for 4 h at 37° C. with 225 rpm shaking. Conversion ratio was calculated from sucrose and isomaltulose peak areas normalised against standards of known concentration, using a Beckman P/ACE 5000 CE as described previously herein.
# [8] = Glucose and fructose tested as substrates of the purified enzyme; type: biochemical; conditions: 30° C., 30 minutes, pH 3.0 to 7.0
# Experimental: (§4) Isomaltulase activity of the purified enzyme was investigated by incubation with 50 mM isomaltulose at 30° C. for 30 minutes at each of pH 3.0, 4.0, 5.0, 6.0 and 7.0. Glucose and fructose were tested as substrates under the same reaction conditions.
# [9] = Storage stability of purified SI proteins; type: physicochemical
# Experimental: The purified fresh enzymes from SDS-PAGE had specific activities for isomaltulose production of: E. rhapontici: 35 U mg^−1 protein, Klebsiella sp.: 95 U mg^−1 protein and P. dispersa: 632 U mg^−1 protein. The purified SI from E. rhapontici lost function during overnight storage at −20° C. in elution buffer diluted with 50% glycerol. In contrast, the purified enzymes from 14S or P. dispersa retained 100% of the fresh enzyme efficiency for isomaltulose production after 6-month storage at −20° C., or 60% after 15-day storage at room temperature in the same buffer. Because of instability, the E. rhapontici SI was not characterised further in purified form. Cheetham et al., (1984) found substantial differences between E. rhapontici strains for SI stability in immobilized cells, and the enzyme from strain NCPPB 1578 was stable in purified form (Cheetham, 1984).
# as §1
# [10] = Isomaltulase activity of the purified enzyme; type: biochemical; conditions: 50 mM isomaltulose, 30° C., 30 minutes, pH 3.0 to 7.0
# Experimental: as §4
# [11] = Assay of isolated (purified) SI enzyme activity; type: biochemical
# Experimental: as §1, §2
# The enzymes were incubated with sucrose at different pH ranging from 2.0 to 10.6. The solution of pH 2.0 was buffered in 0.2 M KCl; pH 3.0 to pH 9.0 were in 0.1 M citrate/phosphate buffer; pH 10.0 to pH 10.6 were in 0.2 M glycine buffer. The effect of temperature from 10° C. to 70° C. was measured at pH 6.0. […]
# [12] = E. coli, pET 24b, same expression conditions
molecule,measurement,setting,value
"OC[C@H]1O[C@@](CO)(O[C@H]2O[C@H](CO)[C@@H](O)[C@H](O)[C@H]2O)[C@@H](O)[C@@H]1O [sucrose, α-D-glucosyl-1,2-D-fructose]",Km,[1],54.6 mM
same,Km,[2],65 mM
same,Vmax,[2],120 U mg^−1
same,Vmax,[3],637 μmoles isomaltulose/mg protein/min
same,Vmax,"[3]; pH 6.0, 30° C., Lineweaver and Burk",637 U mg^−1
same,Vmax,[4],100 U mg^−1
same,Vmax,[5],110 U mg^−1
same,Km,[6],19.2 mM
"P. dispersa SI: sucrose isomerase cloned from bacterial isolate 68J, SEQ ID NO: 8, mature polypeptide SEQ ID NO: 10 (protein, not fully specified; X: residue not identified in the source) MFLNGFKTVIALTMASSFYLAASPLTKPSTPIAATNIQKSADFPIWWKQAVFYQIYPRSFKDSNGDGIGDIPGIIEKLDYLKMLGVDAIWINPHYESPNTDNGYDISDYRKIMKEYGSMADFDRLVAEMNKRGMRLMIDIVINHTSDRHRWFVQSRSGKDNPYRDYYFWRDGKQGQAPNNYPSFFGGSAWQLDKQTDQYYLHYFAPQQPDLNWDNPKVRAELYDILRFWLDKGVSGLRFDTVATFSKIPGFPDLSKAQLKNFAEAYTEGPNIHKYIHEMNRQVLSKYNVATAGEIFGVPVSAMPDYFDRRREELNIAFTFDLIRLDRYPDQRWRRKPWTLSQFRQVISQTDRAAGEFGWNAFFLDNHDNPRQVSHFGDDSPQWRERSAKALATLLLTQRATPFIFQGAELGMTNYPFKNIEEFDDIEVKGFWNDYVASGKVNAAEFLQEVRMTSRDNSRTPMQWNDSVNAGFTQGKPWFHLNPNYKQINAARXVNKPDSVFSYYRQLINLRHQIPALTSGEYRDLDPQNNQVYAYTRILDNEKYLVVVNFKPEQLHYALPDNLTIASSLLENVHQPSLQENASTLTLAPWQAGIYKLN","conversion efficiency from sucrose to isomaltulose, times that of the 14S (Klebsiella sp.) gene product/clone",[7]; [12],18 times
same,"conversion efficiency from sucrose to isomaltulose, times that of the Erwinia rhapontici gene product/clone",[7]; [12],10 times
same,proportions of glucose and fructose generated,[7]; compared with 14S (Klebsiella sp.) and Erwinia rhapontici SIs,smaller proportions of glucose and fructose
same,"efficiency of the soluble enzyme, times that of the Erwinia and Klebsiella enzymes","[7]; intact cell assay, estimated",6-38 times
same,product from glucose and fructose as substrates,[8],no product was detected
same,fresh enzyme efficiency for isomaltulose production retained,"[9]; 6-month storage at −20° C., elution buffer with 50% glycerol",100%
same,fresh enzyme efficiency for isomaltulose production retained,"[9]; 15-day storage at room temperature, same buffer",60%
same,hydrolysis of isomaltulose,[10],did not hydrolyse isomaltulose
same,"monosaccharides, share of the products",[11]; from pH 4 to 8,less than 20%
same,"activity at 10° C., of activity at optimal temperature",[11]; purified SI,15%
same,activity at 60° C.,[11]; purified SI,still active
same,isomaltulose production at pH 3 and pH 8,[11]; purified SI,some isomaltulose was still produced
same,optimal pH for isomaltulose production,[11]; purified SI,5
same,time until all sucrose was converted,[11]; purified SI,≤ 45 min
same,sucrose converted to isomaltulose (of consumed sucrose),"[11]; purified SI, complete conversion, remainder glucose and fructose",91%
same,optimal temperature for isomaltulose production,"[11]; purified SI, pH 6.0",37 °C
same,specific activity for isomaltulose production,[11]; purified fresh His-tagged enzymes,632 U mg^−1 protein

# — patent US7977082B2, “Isomaltulose synthases, polynucleotides encoding them and uses therefor” (The University of Queensland of St. Lucia, priority 2001, dated 2011)
